According to US20150299281A1 (ZEALAND PHARMA A S, published 2015):
Square brackets hold non-standard residues; d marks the D form. Aib = CC(C)(N)C(=O)O

T1: human GIP receptor (human, UniProt P48546 22-466)
T1 sequence (looked up): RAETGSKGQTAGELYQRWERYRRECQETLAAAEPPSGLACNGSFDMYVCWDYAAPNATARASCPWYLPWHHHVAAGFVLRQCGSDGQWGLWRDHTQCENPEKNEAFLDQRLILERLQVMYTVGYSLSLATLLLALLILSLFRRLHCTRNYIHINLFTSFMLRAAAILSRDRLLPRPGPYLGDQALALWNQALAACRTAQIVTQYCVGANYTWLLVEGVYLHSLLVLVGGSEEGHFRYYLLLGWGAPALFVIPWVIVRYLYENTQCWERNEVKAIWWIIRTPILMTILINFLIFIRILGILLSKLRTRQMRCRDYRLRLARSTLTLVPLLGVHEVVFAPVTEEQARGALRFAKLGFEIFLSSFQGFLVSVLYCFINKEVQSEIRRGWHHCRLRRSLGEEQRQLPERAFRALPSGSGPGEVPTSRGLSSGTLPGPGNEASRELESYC

B1: Compound 8 (peptide)
peptide: H-Y[Aib]EGTFSSDYSIYLDKKAQRAFVNWLLA[Aib]K-NH2
SMILES: CC[C@H](C)[C@H](NC(=O)[C@H](CO)NC(=O)[C@H](Cc1ccc(O)cc1)NC(=O)[C@H](CC(=O)O)NC(=O)[C@H](CO)NC(=O)[C@H](CO)NC(=O)[C@H](Cc1ccccc1)NC(=O)[C@@H](NC(=O)CNC(=O)[C@H](CCC(=O)O)NC(=O)C(C)(C)NC(=O)[C@@H](N)Cc1ccc(O)cc1)[C@@H](C)O)C(=O)N[C@@H](Cc1ccc(O)cc1)C(=O)N[C@@H](CC(C)C)C(=O)N[C@@H](CC(=O)O)C(=O)N[C@@H](CCCCN)C(=O)N[C@@H](CCCCN)C(=O)N[C@@H](C)C(=O)N[C@@H](CCC(N)=O)C(=O)N[C@@H](CCCNC(=N)N)C(=O)N[C@@H](C)C(=O)N[C@@H](Cc1ccccc1)C(=O)N[C@H](C(=O)N[C@@H](CC(N)=O)C(=O)N[C@@H](Cc1c[nH]c2ccccc12)C(=O)N[C@@H](CC(C)C)C(=O)N[C@@H](CC(C)C)C(=O)N[C@@H](C)C(=O)NC(C)(C)C(=O)N[C@@H](CCCCN)C(N)=O)C(C)C
B2: Compound 12 (peptide)
peptide: H-Y[Aib]EGTFTSDYSIALDKKAQRAFVNWLLA[Aib]K-NH2
SMILES: CC[C@H](C)[C@H](NC(=O)[C@H](CO)NC(=O)[C@H](Cc1ccc(O)cc1)NC(=O)[C@H](CC(=O)O)NC(=O)[C@H](CO)NC(=O)[C@@H](NC(=O)[C@H](Cc1ccccc1)NC(=O)[C@@H](NC(=O)CNC(=O)[C@H](CCC(=O)O)NC(=O)C(C)(C)NC(=O)[C@@H](N)Cc1ccc(O)cc1)[C@@H](C)O)[C@@H](C)O)C(=O)N[C@@H](C)C(=O)N[C@@H](CC(C)C)C(=O)N[C@@H](CC(=O)O)C(=O)N[C@@H](CCCCN)C(=O)N[C@@H](CCCCN)C(=O)N[C@@H](C)C(=O)N[C@@H](CCC(N)=O)C(=O)N[C@@H](CCCNC(=N)N)C(=O)N[C@@H](C)C(=O)N[C@@H](Cc1ccccc1)C(=O)N[C@H](C(=O)N[C@@H](CC(N)=O)C(=O)N[C@@H](Cc1c[nH]c2ccccc12)C(=O)N[C@@H](CC(C)C)C(=O)N[C@@H](CC(C)C)C(=O)N[C@@H](C)C(=O)NC(C)(C)C(=O)N[C@@H](CCCCN)C(N)=O)C(C)C
B3: Compound 11 (peptide)
peptide: H-Y[Aib]EGTFTSDYLIYLDKKAQRAFVNWLLA[Aib]K-NH2
SMILES: CC[C@H](C)[C@H](NC(=O)[C@H](CC(C)C)NC(=O)[C@H](Cc1ccc(O)cc1)NC(=O)[C@H](CC(=O)O)NC(=O)[C@H](CO)NC(=O)[C@@H](NC(=O)[C@H](Cc1ccccc1)NC(=O)[C@@H](NC(=O)CNC(=O)[C@H](CCC(=O)O)NC(=O)C(C)(C)NC(=O)[C@@H](N)Cc1ccc(O)cc1)[C@@H](C)O)[C@@H](C)O)C(=O)N[C@@H](Cc1ccc(O)cc1)C(=O)N[C@@H](CC(C)C)C(=O)N[C@@H](CC(=O)O)C(=O)N[C@@H](CCCCN)C(=O)N[C@@H](CCCCN)C(=O)N[C@@H](C)C(=O)N[C@@H](CCC(N)=O)C(=O)N[C@@H](CCCNC(=N)N)C(=O)N[C@@H](C)C(=O)N[C@@H](Cc1ccccc1)C(=O)N[C@H](C(=O)N[C@@H](CC(N)=O)C(=O)N[C@@H](Cc1c[nH]c2ccccc12)C(=O)N[C@@H](CC(C)C)C(=O)N[C@@H](CC(C)C)C(=O)N[C@@H](C)C(=O)NC(C)(C)C(=O)N[C@@H](CCCCN)C(N)=O)C(C)C

What follows are binders tested against human GLP-1 receptor (human, UniProt P43220 24-463) (assay: cell-based or functional assay).

Row | Binder | EC50, cAMP induction in HEK293 cells expressing human GLP-1 R
1 | B1 | 0.029 nM
2 | B2 | 0.01 nM
3 | B3 | 0.47 nM

The binders below were run against T1, human GIP receptor (assay: cell-based or functional assay).

Row | Binder | EC50, cAMP induction in HEK293 cells expressing human GIP R
4 | B1 | 0.1 nM
5 | B2 | 0.05 nM
6 | B3 | 0.76 nM
